In patent publication US20200368361A1 (Regeneron, published 2020):
Blank lines part the entries; values can stand above or below the binder they belong to.

Assays:
[1] = biological target: T1, full length monkey MSR1 on HEK293.mfMSR1 cells (Macaca fascicularis, UniProt A0A2K5UWE2 1-451); experiment: ECL cell binding (Meso Scale), ratio to isotype control compared with parental HEK293
T1 construct: whole, on cells; also called mfMSR1 engineered cells
T1 sequence: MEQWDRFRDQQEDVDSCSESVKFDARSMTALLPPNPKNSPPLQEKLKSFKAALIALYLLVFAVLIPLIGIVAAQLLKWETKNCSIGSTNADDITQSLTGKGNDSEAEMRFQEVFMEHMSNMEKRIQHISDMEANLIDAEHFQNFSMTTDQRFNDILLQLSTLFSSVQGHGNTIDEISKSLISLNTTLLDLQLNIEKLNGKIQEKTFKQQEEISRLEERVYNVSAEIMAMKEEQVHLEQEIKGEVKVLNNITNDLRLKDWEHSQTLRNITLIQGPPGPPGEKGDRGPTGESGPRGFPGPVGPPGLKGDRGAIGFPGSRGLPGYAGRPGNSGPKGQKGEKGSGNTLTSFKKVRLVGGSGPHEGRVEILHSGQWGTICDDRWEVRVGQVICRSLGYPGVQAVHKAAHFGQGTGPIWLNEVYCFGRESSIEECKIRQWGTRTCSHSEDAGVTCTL

[2] = biological target: T2, human MSR1 extracellular domain expressed with a N-terminal nonahistidine tag (His9-hMSR1); R&D Systems, Cat … (human, UniProt P21757 77-451); experiment: SPR Biacore, 25C, mAb captured by anti-human Fc, MSR1 as analyte; calculated from kd fixed at 1.00E-05
T2 construct: extracellular domain; Bought protein; also called His-hMSR1
T2 sequence: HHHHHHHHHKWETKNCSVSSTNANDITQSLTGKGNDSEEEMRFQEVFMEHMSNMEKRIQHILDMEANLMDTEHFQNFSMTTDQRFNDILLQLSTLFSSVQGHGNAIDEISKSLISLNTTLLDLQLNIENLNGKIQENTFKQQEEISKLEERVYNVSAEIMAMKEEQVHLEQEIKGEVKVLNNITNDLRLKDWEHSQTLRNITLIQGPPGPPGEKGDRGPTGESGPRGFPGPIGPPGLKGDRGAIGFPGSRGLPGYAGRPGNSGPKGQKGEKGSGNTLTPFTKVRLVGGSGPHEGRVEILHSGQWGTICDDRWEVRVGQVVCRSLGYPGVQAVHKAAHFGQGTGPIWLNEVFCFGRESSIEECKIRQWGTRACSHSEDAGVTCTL
Procedure: (§1) Binding affinities and kinetic constants of human anti-MSR1 antibodies for different MSR1 reagents were determined by real-time surface plasmon resonance (Biacore 4000). All binding studies were performed in 10 mM HEPES, 150 mM NaCl, 3 mM EDTA, and 0.05% v/v Surfactant Tween-20, pH 7.4 (HBS-ET) running buffer at 25° C. and 37° C.
(§2) The association rate (kₐ) and dissociation rate (kd) were determined by fitting the real-time binding sensorgrams to a 1:1 binding model with mass transport limitation using Scrubber 2.0 c curve-fitting software.

[3] = biological target: T3, monkey MSR1 extracellular domain expressed with a N-terminal hexahistidine-myc-myc tag (HMM-mfMSR1) (monkey (Macaca fascicularis)); experiment: as above
T3 chain: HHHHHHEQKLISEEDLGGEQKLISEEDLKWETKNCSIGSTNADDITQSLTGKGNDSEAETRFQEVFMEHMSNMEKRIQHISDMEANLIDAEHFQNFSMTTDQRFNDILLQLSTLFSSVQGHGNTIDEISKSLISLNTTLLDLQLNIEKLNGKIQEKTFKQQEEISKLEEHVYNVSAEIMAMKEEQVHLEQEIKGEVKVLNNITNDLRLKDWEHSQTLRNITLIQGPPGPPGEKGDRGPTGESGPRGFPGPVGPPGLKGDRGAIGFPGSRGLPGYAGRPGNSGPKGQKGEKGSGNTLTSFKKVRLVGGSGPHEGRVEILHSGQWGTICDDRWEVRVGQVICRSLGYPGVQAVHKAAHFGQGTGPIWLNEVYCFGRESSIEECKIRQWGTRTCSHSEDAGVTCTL
Procedure: as §1, §2

[4] = biological target: T4, mouse MSR1 on RAW264.7 cells (mouse, UniProt P30204 1-458); experiment: flow cytometry, RAW264.7 cells, 10 ug/mL;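 also: antibodies bound to RAW264.7 cells for 30 min on ice after Fc block with mouse IgG, S/N is MFI relative to unstained cells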
T4 construct: whole, on cells
T4 sequence (looked up): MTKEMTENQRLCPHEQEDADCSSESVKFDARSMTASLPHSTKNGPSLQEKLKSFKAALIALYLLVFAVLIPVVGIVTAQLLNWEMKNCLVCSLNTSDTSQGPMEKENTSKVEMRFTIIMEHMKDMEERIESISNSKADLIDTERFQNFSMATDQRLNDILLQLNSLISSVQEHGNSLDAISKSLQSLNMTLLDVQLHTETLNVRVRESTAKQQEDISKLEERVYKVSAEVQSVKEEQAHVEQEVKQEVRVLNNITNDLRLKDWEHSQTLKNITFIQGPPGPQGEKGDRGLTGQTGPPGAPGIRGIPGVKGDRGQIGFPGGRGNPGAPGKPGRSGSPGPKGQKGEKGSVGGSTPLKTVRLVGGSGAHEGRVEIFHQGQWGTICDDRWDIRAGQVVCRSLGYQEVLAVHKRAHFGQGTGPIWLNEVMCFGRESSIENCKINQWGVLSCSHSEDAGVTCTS
Procedure: To block binding to Fc receptors, RAW264.7 cells were incubated for 30 minutes at 4° C. with 500 μg/mL mouse IgG (Jackson ImmunoResearch, Cat #015-000-003) diluted in staining buffer, while B16F10.9 cells remained in staining buffer. Following Fc receptor blocking, 10 μg/mL of anti-MSR1 antibodies or an isotype control antibody were added to the cells and were subsequently incubated for 30 minutes on ice. […] The signal to noise (S/N) was determined by calculating the ratio of the anti-MSR1 antibodies or the control antibodies MFI to the unstained sample MFI (Table 16).

[5] = biological target: T5, full length monkey MSR1 on HEK293.mfMSR1 cells (Macaca fascicularis, UniProt A0A2K5UWE2 1-451); experiment: ECL cell binding, HEK293.mfMSR1
T5 construct: whole, on cells
T5 sequence: T1 sequence
Procedure: All cells were washed once with 1×PBS with Ca²⁺/Mg²⁺ and counted with a Cellometer™ Auto T4 cell counter (Nexcelom Bioscience). Approximately 1.0×10⁴ cells were seeded separately onto 96-well carbon electrode plates [MULTI-ARRAY high bind plate, Meso Scale Diagnostics] and incubated for 1 hour at 37° C. Non-specific binding sites were then blocked by 2% BSA (w/v) in PBS with Ca²⁺/Mg²⁺ for 1 hour at room temperature. THP-1 cells were pre-incubated for 0.5 hours at room temperature in sample dilution buffer with: 1) 1 mg/mL Fc receptor block reagents to block Fc gamma receptors on THP-1 cell surface [whole molecule human IgG (Jackson Immunoresearch, Cat #009-000-003) for wells being tested with anti-MSR1-mFc antibodies or 2) whole molecule mIgG (Jackson Immunoresearch, Cat #015-000-003) for wells being tested with anti-MSR1-hFc antibodies. Antibody binding on HEK293.Myc.hMSR1, HEK293.mfMSR1 and HEK293 cells was tested without Fc receptor block reagents. […] Plates were then washed to remove unbound antibodies an AquaMax2000 plate washer with a cell washing head (MDS Analytical Technologies). […] Plates were washed and developed with Read Buffer (Meso Scale Diagnostics, Cat #R92TD-2) according to manufacturer's recommended procedure and luminescent signals were recorded with a SECTOR Imager 600 (Meso Scale Diagnostics). Luminescence intensity, measured in relative light units (RLU), was recorded to indicate the binding intensity of each antibody at the range of concentrations.

[6] = biological target: T6, full length human MSR1 with a C-terminal Myc tag on HEK293.Myc.hMSR1 cells (human, UniProt P21757 1-451); experiment: ECL cell binding, HEK293.Myc.hMSR1
T6 construct: whole, on cells
T6 sequence (looked up): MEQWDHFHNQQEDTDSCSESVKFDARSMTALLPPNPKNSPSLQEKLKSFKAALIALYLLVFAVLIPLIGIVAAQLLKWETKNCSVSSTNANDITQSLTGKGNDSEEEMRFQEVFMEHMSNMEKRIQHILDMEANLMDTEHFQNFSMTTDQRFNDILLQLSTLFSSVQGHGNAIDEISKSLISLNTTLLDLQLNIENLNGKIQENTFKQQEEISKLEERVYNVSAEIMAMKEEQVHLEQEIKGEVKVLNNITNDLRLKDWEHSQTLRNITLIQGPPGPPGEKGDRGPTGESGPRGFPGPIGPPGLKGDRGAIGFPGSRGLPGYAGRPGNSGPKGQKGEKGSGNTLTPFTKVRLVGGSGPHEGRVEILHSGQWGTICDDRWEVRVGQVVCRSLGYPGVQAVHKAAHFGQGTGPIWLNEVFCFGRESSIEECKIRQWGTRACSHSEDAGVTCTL

[7] = biological target: T7, monkey MSR1 extracellular domain expressed with a N-terminal hexahistidine-myc-myc tag (monkey (Macaca fascicularis)); experiment: SPR 37C, mAb captured; no dissociation seen, kd fixed
T7 construct: also called HMM-mfMSR1
T7 chain: T3 chain
Procedure: as §1, §2

[8] = biological target: T8, human MSR1 extracellular domain expressed with a N-terminal nonahistidine tag (human, UniProt P21757 77-451); experiment: as above
T8 construct: extracellular domain; Bought reagent; also called His9-hMSR1
T8 sequence: T2 sequence
Procedure: as §1, §2

- binding result [1]: no binding (tested: 11 nM)
B1: H1xH29273P2 (antibody, V domains shown)
VH: QVQLVESGGGVVQSGRSLRLSCAAAGFTFSNYGMHWVRQAPGKGLEWVALMSFDGSDKYYADSVKGRFTISRDNSKNTLYLQMNSLRAEDTALYYCAKGYDFWSGYWDYWGQGTLVTVSS
VL: not shown
notes: The H1xH prefix is not explained for the anti-MSR1 antibodies; Fc form as tested not clear

- t½ [2]: 19.2 h
- t½ [3]: 19.2 h
B2: H1H21234N (antibody, V domains shown)
VH: QVQLQESGPGLVKPSETLSLTCTVTGGSISRNYWSWIRQPPGKGLEWIGYIYYSGSIDYNPSLKSRVTISVDTSKNQFSLKLSSMTAADTAVYYCARDRWNWKYGMDVWGQGTTVIVSS
VL: EIVLTQSPGTLSLSPGERATLSCRASQTVRNNYLAWYHQKPGQAPRLLIYGASSRATGIPDRFSGSGSGTDFTLTISRLEPEDFTVYYCHQYGNSPWTFGQGTKMEIKR
notes: original human IgG1 Fc (no N297 mutation)

- MFI [4]: 7050
- S/N [4]: 3
- binding signal ratio to isotype control (11 nM) [5]: 35 fold
- binding signal ratio to isotype control (11 nM) [6]: 43 fold
- Kd [7]: ≤ 0.0133 nM
- Kd [8]: ≤ 0.0127 nM
B3: H1H21234N-N297Q (antibody, human IgG1, V domains shown)
VH: B2 VH
VL: B2 VL
notes: human IgG1 Fc with N297Q
